{"source": "paper PMC4075986", "molecular_target": "chicken pectoral skeletal muscle actin (F-actin) (chicken) (UniProt P68139)", "assay": "co-sedimentation"}
{"substance": "rat tropomyosin Tm5a (natural protein)", "values": [{"measurement": "Ka", "value": "1.7e+06", "unit": "M⁻¹"}]}
